Values of other authors, collected in PMC11941745.

What was measured:
[1] = target: flotillin-2 (Homo sapiens) (UniProt Q14254); assay: SPR
[2] = target: flotillin-1 (Homo sapiens) (UniProt O75955); assay: SPR
Chain of UniProt O75955 (O75955 whole entry): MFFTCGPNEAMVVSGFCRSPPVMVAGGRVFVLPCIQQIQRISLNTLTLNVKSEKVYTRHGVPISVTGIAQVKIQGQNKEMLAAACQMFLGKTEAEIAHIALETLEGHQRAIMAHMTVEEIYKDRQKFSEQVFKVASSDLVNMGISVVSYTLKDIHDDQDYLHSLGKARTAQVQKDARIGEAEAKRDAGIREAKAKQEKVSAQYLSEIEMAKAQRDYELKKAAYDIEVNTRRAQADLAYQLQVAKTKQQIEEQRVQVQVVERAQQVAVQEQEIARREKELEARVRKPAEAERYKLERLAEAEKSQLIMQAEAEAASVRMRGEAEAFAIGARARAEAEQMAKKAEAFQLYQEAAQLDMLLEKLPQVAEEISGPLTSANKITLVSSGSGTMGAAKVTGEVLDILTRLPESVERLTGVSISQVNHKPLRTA

Chain of UniProt Q14254 (Q14254 2-428): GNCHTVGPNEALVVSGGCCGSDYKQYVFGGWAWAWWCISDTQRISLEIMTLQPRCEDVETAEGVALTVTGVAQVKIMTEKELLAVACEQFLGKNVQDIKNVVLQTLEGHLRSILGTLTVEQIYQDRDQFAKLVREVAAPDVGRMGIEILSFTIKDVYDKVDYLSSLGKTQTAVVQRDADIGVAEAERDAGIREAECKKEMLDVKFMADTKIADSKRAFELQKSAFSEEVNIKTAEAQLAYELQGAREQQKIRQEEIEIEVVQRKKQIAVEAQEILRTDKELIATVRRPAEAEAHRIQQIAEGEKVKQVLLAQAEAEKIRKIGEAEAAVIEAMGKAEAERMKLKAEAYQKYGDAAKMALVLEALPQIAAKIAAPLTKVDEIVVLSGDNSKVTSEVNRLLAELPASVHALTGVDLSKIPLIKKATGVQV

Kd [1]: 24.8 nM | Kd [2]: 18.1 nM
Substance: MPP1 (from UniProt Q00013)
